Experimental data: article PMC7311918, “Structures of Human Antibodies Bound to SARS-CoV-2 Spike Reveal Common Epitopes and Recurrent Features of Antibodies” (Cell, 2020)
Where “and” joins values, the source holds several entries; their conditions need not be identical. Identical values can stand only once.

Biological target: T1, SARS-CoV-2 S 2P trimer (S ectodomain, residues 16-1206) (SARS-CoV-2, early isolate GenBank …, UniProt P0DTC2, stabilised)
T1 construct: also called SARS-CoV-2 S protein; SARS-CoV-2 S trimer
Assay: cryo-EM structure
Settings: both partners purified

B1: C105 Fab (Fab, V domains shown)
VH: QVQLVESGGGLIQPGGSLRLSCAASGFTVSSNYMSWVRQAPGKGLEWVSVIYSGGSTYYADSVKGRFTISRDNSKNTLYLQMNSLRAEDTAVYYCARGEGWELPYDYWGQGTLVTVSS
VL: QSALTQPPSASGSPGQSVTISCTGTSSDVGGYKYVSWYQQHPGKAPKLMIYEVSKRPSGVPDRFSGSKSGNTASLTVSGLQAEDEADYYCSSYEGSNNFVVFGGGTKLTVL
notes: also called mAb C105
  stoichiometry N: 2 Fabs per S trimer and 3 Fabs per S trimer
